From the nanobody polyreactivity screen of Harvey et al. (2022)

Test: yeast display, Sf9 membrane polyspecificity reagent, FACS + sequencing; frameworks hold sequencing errors
Summary of the method: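 Nanobodies came from a synthetic yeast display library in Saccharomyces cerevisiae BJ5465, induced with galactose for 36–48 hours and stained for 1 hour at 4 °C with 10% biotinylated, detergent-solubilized Sf9 membrane reagent. Cells were enriched on streptavidin microbeads and then FACS-sorted, with low and high (top ~1%) gates set on anti-HA fluorescence for expression and streptavidin fluorescence for reagent binding. Each polyreactivity label reflects the gate a clone came from. Genes were amplified by colony PCR, sequenced by MiSeq 2 × 250 and filtered by CDR length.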

Row | Sequence | polyreactivity (PSR sort gate)
1 | QVQLVESGGGLVQAGGSLRLSCAASGSTFYKYAMGWYRPAPGKESELVAAISRGGSTYYADSVKGRFTISRDNAKNTFYLQMNSLKPEDTAVYYCAAETVSYYSKYDYWGQGTQVTVSS | low polyreactivity
2 | QVQLVESGGGLVQAGGSLRLSCAASGSTFYKYAMGWYRQAPGKERELVAAITGSGGGTYYADSVKGRFTISRDNGKNTVYLQMNCLKPEDTAVYYCAARRVRSREAYDYWGQGTQVTVSS | high polyreactivity
3 | QVQLVESGGGLVQAGGSLRLSCAASGSTFYKYAMGWYRQAPGKERELVARISRGGGSTYYADSVKGRFTISRDNAKNTVYLQMNSLKPEDTAVYYCAAGVRGQNDGYYWGQGTEVTVSS | high polyreactivity
4 | QVQLVESGGGLVQAGGSLRLSCAASGSTFYLNAMGWYRQAPGKERELVAAIDYRGGSTYYADSVKGRFTISRDNAKNTVYLQMNSLKPEDTAVYYCNADYVYVHYQPGYYWGQGTQVTVSS | low polyreactivity
5 | QVQLVESGGGLVQAGGSLRLSCAASGSTFYLNAMGWYRQAPGKERELVAAITVSGGSTYYADSVKGRFTISRDNAKNTVYLQMNSLKPEDTAVYYCARELLSPTYQRWYYYWGQGTQVTVSS | low polyreactivity
6 | QVQLVESGGGLVQAGGSLRLSCAASGSTFYLYAMGWYRQAPGKEREFVAAISWSGGRTYYAYSVKGRFTISRDNAKNTVYLQMNSLKPEDTAVYYCAARRRYTWQYTRYDMGYWGQGTQVTVSS | low polyreactivity
7 | QVQLVESGGGLVQAGGSLRLSCAASGSTFYLYAMGWYRQAPGKEREFVARISASGGNTYYADSVKGRFTISRDNAKNTVYLQMNSLKPEDTAVYSCAARVRGRNASDYDYYYWGQGTQVTVSS | high polyreactivity
8 | QVQLVESGGGLVQAGGSLRLSCAASGSTFYLYAMGWYRQAPGKERELVAAISSGGRTYYADSVKGRFTISRDNAKNTVYLQMNRLKPEDTAVYYCAKVYRRRYYWGQGTQVNVSS | high polyreactivity
9 | QVQLVESGGGLVQAGGSLRLSCAASGSTFYLYAMGWYRQAPGKERELVAAITFRGSRTYYADSVKGRFTISRDNAKNTVYLQMNRLKPEDTAVYYCAKEKYRTREHDSWGQGTQVTVSS | low polyreactivity
10 | QVQLVESGGGLVQAGGSLRLSCAASGSTFYLYAMGWYRQAPGKERELVAAITYGGGSTYYADSVKGRFTISRDNAKNTVYLQMNSLKPEDTAVYYCAARWLYWPRYTSLVYTHRDSWGQGTQVTVSA | low polyreactivity
11 | QVQLVESGGGLVQAGGSLRLSCAASGSTFYLYAMGWYRQAPGKERELVASITYSGASTYYADSVKGRFTISRDNAKNTVYLQMNSLKPEDTAVYYCAADQRGWFAVGSQRKYNYWGQGTQVTVSS | low polyreactivity
12 | QVQLVESGGGLVQAGGSLRLSCAASGSTFYLYTMGWYRQAPGKERELVAAISRSGGSTRYADSVKGRFTISRDNAKNTVYLQMNSLKPEDTAVYYCAARSTVYPRPHERDYWGQGTQVTVSS | high polyreactivity
13 | QVQLVESGGGLVQAGGSLRLSCAASGSTFYNYAMGWYRQAPGKERELVASISSSGGSTYADSVKGRFTISRDNAKNTVYLQMNSLKPEDTAVYYCARVRWIVPWYGPTDDYWGQGTQVTVSS | low polyreactivity
14 | QVQLVESGGGLVQAGGSLRLSCAASGSTFYPNAMGGYRQAPGKERELVATITQRGGTTYYADSVKGRFTISRDNAKNTVYLQMNSLKPEDTAVYYCNAGPVRLPYDSWGQGTQVTVSS | low polyreactivity
15 | QVQLVESGGGLVQAGGSLRLSCAASGSTFYPNAMGWYRQAPGKERELVAAISRGTRTKYADSVKGRFTISRDNAKNTVYLQMNSLKPEDTAVYYCAADTGTGLDWGQGTQVNVSS | high polyreactivity
16 | QVQLVESGGGLVQAGGSLRLSCAASGSTFYPNAMGWYRQAPGKERELVAAISWSGGRTYYADSVKGRFTISRDNAKNTVYLQMNSLKPEDTAVYYCNRYHRTSWRAKYDYWGQGTQVTVSS | high polyreactivity
17 | QVQLVESGGGLVQAGGSLRLSCAASGSTFYPNAMGWYRQAPGKERELVAAITSGGSTYYADSVKGRFTSSRDNAKNTVYLQMTSLKPEDTAVYYCAAQRRYHQDTTIGPGNYSYWGQGTQVTVSS | low polyreactivity
18 | QVQLVESGGGLVQAGGSLRLSCAASGSTFYPNAMGWYRQAPGKERELVAVITRSGGSTYYADSVKGRFTISRDNAKNTVYLQMNSLKPEDTAVYYCNAAYRTAYYGPRYDYWGQGTQVTVSS | high polyreactivity
19 | QVQLVESGGGLVQAGGSLRLSCAASGSTFYPTAMGWYRQAPGKERELVAAIRVRGGSTYYADSVKGRYTISRDNAKNTVYLKRNCLKPEDTAVYYCNADTFSSFGWGQGTQVTVSS | low polyreactivity
20 | QVQLVESGGGLVQAGGSLRLSCAASGSTFYPYAMGWYRPAHGKERELVAAITSRVGRTYYADSVKGRFTISRDNAKNTVYLQMNSLKPEDTAVYYCAAKIFIRVHYYSYRMYYWGQGTQVTVSS | low polyreactivity
21 | QVQLVESGGGLVQAGGSLRLSCAASGSTFYPYAMGWYRPAPGKERELVASITLRGSSTYYADSVKGRFTISRDNAKNTVYLQMNSLKPEDTAVYYCAKEGYLYLWRYDYWGQGTQVTVSS | high polyreactivity
22 | QVQLVESGGGLVQAGGSLRLSCAASGSTFYPYAMGWYRQAPGKEREFVAGISRSGGTTYYADSVKGRFTISRDNAKNTVYLQMNSLKPEDTAVYYCAVQIPYVYWSYDYWGQGTQVTVSS | low polyreactivity

Row | Sequence | polyreactivity (PSR sort gate)
23 | QVQLVESGGGLVQAGGSLRLSCAASGSTFYPYAMGWYRQAPGKEREFVARISVSAGRTYYADSVKGRFTISRDNAKNTVYLQMNSLKPEDTAVYYCAKGIPTFYGSPRYDYWGQGTQVTVSS | low polyreactivity
24 | QVQLVESGGGLVQAGGSLRLSCAASGSTFYPYAMGWYRQAPGKERELVAAIDRGGSTSYADSVKGRFTISRDNAKNTVYLQMNSLKPEDTAVYYCAVARGGRRKYEYWGQGTQVTVSS | low polyreactivity
25 | QVQLVESGGGLVQAGGSLRLSCAASGSTFYPYAMGWYRQAPGKERELVAAISSGGSTSYADSVKGRFTISRDNAKNTVYLQMNSLKPEDTAVYYCAVDVAGGEGMDYWGQGTQVTVSS | low polyreactivity
26 | QVQLVESGGGLVQAGGSLRLSCAASGSTFYPYAMGWYRQAPGKERELVAAISSGGSTYYADSVKGRFTISRDNAKNTVYLQMNSLKPEDTAVYYCAADFYYAYYWGQGTEVTVSS | low polyreactivity
27 | QVQLVESGGGLVQAGGSLRLSCAASGSTFYPYAMGWYRQAPGNERELVAAITGTGGSTYYADSVKGRFTISRDNAKNTVYLQMNSLKPEDTAVYYCATRRRYYYSRYNYWGQGTQVTVSS | high polyreactivity
28 | QVQLVESGGGLVQAGGSLRLSCAASGSTFYPYAMGWYSQAPGKERELVAAISSGGSTSYADSVKGRFTISRDNAKNTVYLQMNSLKPEDTAVYYCNASSPGAVPVYDYDYWGQGTQVTVSS | low polyreactivity
29 | QVQLVESGGGLVQAGGSLRLSCAASGSTFYQNAMGWYRQAPGKERELVAAISIGGGRTYYADSVKGRFTISRDNAKNTVYLQMNSLKPEDTAVYYCAAGPTGRYRREFRFDYLGQGTQVTVSS | low polyreactivity
30 | QVQLVESGGGLVQAGGSLRLSCAASGSTFYRNALGWYRQAPGKERELVARIYRSGSSTSYADSVKGRFTISRDYSKNTVYLQMNSLKPVDTAVYYCATVFVRYEMYWGQGTQLTVSS | high polyreactivity
31 | QVQLVESGGGLVQAGGSLRLSCAASGSTFYRNAMGWYRQAPGKEREFVAAISFRGGGTYADSVKGRFTISRDNAKNTVYFQMNILKPEDTAVYYCAADLLSYRGRYEYWGQGTQVTVSS | low polyreactivity
32 | QVQLVESGGGLVQAGGSLRLSCAASGSTFYRNAMGWYRQAPGKERELVAGISYGGGSTYYADSVKGRFTISRDNAKNTVYLQMNSLKPEDTAVYYCNAVWVKRHYYYWGQGTQVTVSS | low polyreactivity
33 | QVQLVESGGGLVQAGGSLRLSCAASGSTFYRNAMGWYRQAPGKERELVAGISYGGGSTYYADSVKGRFTISRDNAKNTVYLQMNSLKPEDTAVYYCYAVWVKRHYYYWGQGTQVTVSS | low polyreactivity
34 | QVQLVESGGGLVQAGGSLRLSCAASGSTFYRNAMGWYRQAPGKERELVAGITSGVTTYYADSVKGRFTISRDNAKNTVYLQMNSLKPEDSAVYYCAVYWRGRGAFTYGSWGQGTQVTVSS | high polyreactivity
35 | QVQLVESGGGLVQAGGSLRLSCAASGSTFYRNSMGWYRQAPGKEREFVAAISFRGGGTYADSVKGRFTISRDNAKNTVYLQMNSLKPEDSAVYYCAADHQSYRRRYEYWGQGTQVTVSS | low polyreactivity
36 | QVQLVESGGGLVQAGGSLRLSCAASGSTFYRYAMGGYRQAPGKERELVASITRGGGRTHYADSVKGRFTISRDNAKNTVYLQMNSLKPEDTAVYYCAAVTPVSYRLYGYWGQGTQVTVSS | high polyreactivity
37 | QVQLVESGGGLVQAGGSLRLSCAASGSTFYRYAMGWYRQAPGKERELVAAINTGGSTNYADSVKGRFTISRDNAKNTVYLQMNSLKPEDTAVYYCAARFQYYRKYDYWGQGTQGTVSS | low polyreactivity
38 | QVQLVESGGGLVQAGGSLRLSCAASGSTFYRYAMGWYRQAPGKERELVATISKRGGSTYYADSVKGRFTISRDNAKYTVYLQMNSLKPEDTAVYYCNVRLEYRYYRGDYWGQGTQVTVSS | high polyreactivity
39 | QVQLVESGGGLVQAGGSLRLSCAASGSTFYRYAMGWYRQAPGKERELVATITNSGGSTYYADSVKGRFTISRDNAKYTVYLQMNSLKPEDTAVYYCARVRSRNTGYYYWGQGTQVTVSS | high polyreactivity
40 | QVQLVESGGGLVQAGGSLRLSCAASGSTFYRYTMGWYRQAPGKEREFVATITGRGGSTYADSVKGRFTISRDNAKNTVYLQMNSLKPEDTAVYYCAKRQTYREYDYWGQGTQVTVSS | low polyreactivity
41 | QVQLVESGGGLVQAGGSLRLSCAASGSTFYSNAMGWYRQAPGKERELVAGIDTSDGSTNYADSVKGRFTISRDNAKNTVYLQMNSLKPEDTAVYYCAADYTQPGFVSYDYWGQGTQVTVSS | low polyreactivity
42 | QVQLVESGGGLVQAGGSLRLSCAASGSTFYSNSMGWYRQAPGKERELVAAIDWGGGSTYYADSVKGRFTISRDNETNTVYLQMNSLKPEDTAVYYCAKKYYKVHKFDYWGQGNQVTVSS | low polyreactivity
43 | QVQLVESGGGLVQAGGSLRLSCAASGSTFYSNVMGWYRQAPGKERELLAAISQSGGRTFYADSVKGRFTISRDNAKITVYLQMNSLKPEDSAVYYSNASSGNRYGPRYDYWGQGTQVTVSS | high polyreactivity
